One substance from patent US20110189692A1 can be followed below.

In experiment [1] the target is PrP^C, non-pathogenic human prion protein, from normal brain homogenate (human) (UniProt P04156).
Experiment [2] has as its target PrP^Sc, pathogenic conformer of the human prion protein, from vCJD brain homogenate (human) (UniProt P04156).
Experiment [3] concerns the target tau of normal human brain homogenate (native) (human) (UniProt P10636).
For experiment [4], the target named is PrP^Sc, pathogenic conformer of the human prion protein, from vCJD brain homogenate (human) (UniProt P04156). The source holds these as a separate data set.
The target in experiment [5] is aggregated Aβ42 from Alzheimer's disease brain homogenate (human) (UniProt P05067).

Values joined by “and” are separate entries in the source; they are usually repeats but may differ in a detail not shown here. Equal entries are not always repeated.

“PSR1 (peptoid reagent XIIb attached to magnetic beads) (designed binder)” showed an ELISA signal after pulldown (RLU, ave) in experiment [1] of 9.9 RLU. The substance also returned an ELISA signal after pulldown (RLU, ave) in experiment [2] of 53 RLU. In experiment [3], the tau ELISA signal after pulldown, mean of 3 is 0.11 and 0.12; the tau ELISA signal after pulldown, replicate is 0.11 and 0.12 and 0.13. The substance also returned a pulldown efficiency in experiment [4] of 100%. Also, in experiment [5], the recovery was 100%.
